According to US20240400715A1 (VIBRANT PHARMA, published 2024):
Changes are numbered by the printed parent chain.

B1: 302 (TA3), configuration of FIG. 1W (bispecific antibody)
heavy: EVQLVESGGGLVQPGGSLRLSCAASGYSFTGYTMNWVRQAPGKGLEWVALINPYKGVSTYNQKFKDRFTISVDKSKNTAYLQMNSLRAEDTAVYYCARSGYYGDSDWYFDVWGQGTLVTVSSASTKGPSVFPLAPCSRSTSESTAALGCLVKDYFPEPVTVSWNSGALTSGVHTFPAVLQSSGLYSLSSVVTVPSSSLGTKTYTCNVDHKPSNTKVDKRVESKYGPPCPPCPAPEAAGGPSVFLFPPKPKDTLMISRTPEVTCVVVDVSQEDPEVQFNWYVDGVEVHNAKTKPREEQFNSTYRVVSVLTVLHQDWLNGKEYKCKVSNKGLPSSIEKTISKAKGQPREPQVYTLPPCQEEMTKNQVSLWCLVKGFYPSDIAVEWESNGQPENNYKTTPPVLDSDGSFFLYSRLTVDKSRWQEGNVFSCSVMHEALHNHYTQKSLSLSL
chain: EVQLVESGGGFVQAGESLTLSCTSSTLTFTPYRMAWYRQAPGKQRDLVADISSGDGRTTNYADFAKGRFTISRDNIKNTVFLRMTNLKPEDTAVYYCNTFVSFVGIARSWGQGTQVTVSSESKYGPPCPPCPAPEAAGGPSVFLFPPKPKDTLMISRTPEVTCVVVDVSQEDPEVQFNWYVDGVEVHNAKTKPREEQFNSTYRVVSVLTVLHQDWLNGKEYKCKVSNKGLPSSIEKTISKAKGQPREPQVCTLPPSQEEMTKNQVSLSCAVKGFYPSDIAVEWESNGQPENNYKTTPPVLDSDGSFFLVSRLTVDKSRWQEGNVFSCSVMHEALHNRFTQKSLSLSL
light: DIQMTQSPSSLSASVGDRVTITCRASQDIRNYLNWYQQKPGKAPKLLIYYTSRLESGVPSRFSGSGSGTDYTLTISSLQPEDFATYYCQQGNTLPWTFGQGTKVEIK
notes: not shown: kappa light chain constant domain (CL)
B2: 305 (TA6), configuration of FIG. 1W (bispecific antibody)
heavy: EVQLVQSGAEVKKPGASVKVSCKASGYTFTNYYIHWVRQAPGQGLEWIGWIYPGDGNTKYNEKFKGRATLTADTSTSTAYLELSSLRSEDTAVYYCARDSYSNYYFDYWGQGTLVTVSSASTKGPSVFPLAPCSRSTSESTAALGCLVKDYFPEPVTVSWNSGALTSGVHTFPAVLQSSGLYSLSSVVTVPSSSLGTKTYTCNVDHKPSNTKVDKRVESKYGPPCPPCPAPEAAGGPSVFLFPPKPKDTLMISRTPEVTCVVVDVSQEDPEVQFNWYVDGVEVHNAKTKPREEQFNSTYRVVSVLTVLHQDWLNGKEYKCKVSNKGLPSSIEKTISKAKGQPREPQVYTLPPCQEEMTKNQVSLWCLVKGFYPSDIAVEWESNGQPENNYKTTPPVLDSDGSFFLYSRLTVDKSRWQEGNVFSCSVMHEALHNHYTQKSLSLSL
chain: B1 chain
light: DIVMTQSPDSLAVSLGERATINCKSSQSLLNSRTRKNYLAWYQQKPGQPPKLLIYWASTRESGVPDRFSGSGSGTDFTLTISSLQAEDVAVYYCTQSFILRTFGQGTKVEIK
notes: as for B1
B3: 308 (TA3), configuration of FIG. 1X (bispecific antibody)
heavy: EVQLVESGGGLVQPGGSLRLSCAASGYSFTGYTMNWVRQAPGKGLEWVALINPYKGVSTYNQKFKDRFTISVDKSKNTAYLQMNSLRAEDTAVYYCARSGYYGDSDWYFDVWGQGTLVTVSSASTKGPSVFPLAPCSRSTSESTAALGCLVKDYFPEPVTVSWNSGALTSGVHTFPAVLQSSGLYSLSSVVTVPSSSLGTKTYTCNVDHKPSNTKVDKRVESKYGPPCPPCPAPEAAGGPSVFLFPPKPKDTLMISRTPEVTCVVVDVSQEDPEVQFNWYVDGVEVHNAKTKPREEQFNSTYRVVSVLTVLHQDWLNGKEYKCKVSNKGLPSSIEKTISKAKGQPREPQVYTLPPCQEEMTKNQVSLWCLVKGFYPSDIAVEWESNGQPENNYKTTPPVLDSDGSFFLYSRLTVDKSRWQEGNVFSCSVMHEALHNHYTQKSLSLSLGGGGSGGGGSEVQLVESGGGFVQAGESLTLSCTSSTLTFTPYRMAWYRQAPGKQRDLVADISSGDGRTTNYADFAKGRFTISRDNIKNTVFLRMTNLKPEDTAVYYCNTFVSFVGIARSWGQGTQVTVSS
chain: ESKYGPPCPPCPAPEAAGGPSVFLFPPKPKDTLMISRTPEVTCVVVDVSQEDPEVQFNWYVDGVEVHNAKTKPREEQFNSTYRVVSVLTVLHQDWLNGKEYKCKVSNKGLPSSIEKTISKAKGQPREPQVCTLPPSQEEMTKNQVSLSCAVKGFYPSDIAVEWESNGQPENNYKTTPPVLDSDGSFFLVSRLTVDKSRWQEGNVFSCSVMHEALHNRFTQKSLSLSL
light: B1 light
notes: as for B1
B4: 306 (TA7), configuration of FIG. 1W (bispecific antibody)
heavy: B2 heavy with Y27F, N31S, G54E, D55N, G56D, G66D, A68V, L70I, S100G, N103R
chain: B1 chain
light: B2 light with P49S, A57T, E61K, T95K
notes: as for B1
B5: 304 (TA5), configuration of FIG. 1W (bispecific antibody)
heavy: DVQLVQSGAEVKKPGASVKVSCKASGYTFTRYTMHWVRQAPGQGLEWIGYINPSRGYTNYADSVKGRFTITTDKSTSTAYMELSSLRSEDTATYYCARYYDDHYCLDYWGQGTTVTVSSASTKGPSVFPLAPCSRSTSESTAALGCLVKDYFPEPVTVSWNSGALTSGVHTFPAVLQSSGLYSLSSVVTVPSSSLGTKTYTCNVDHKPSNTKVDKRVESKYGPPCPPCPAPEAAGGPSVFLFPPKPKDTLMISRTPEVTCVVVDVSQEDPEVQFNWYVDGVEVHNAKTKPREEQFNSTYRVVSVLTVLHQDWLNGKEYKCKVSNKGLPSSIEKTISKAKGQPREPQVYTLPPCQEEMTKNQVSLWCLVKGFYPSDIAVEWESNGQPENNYKTTPPVLDSDGSFFLYSRLTVDKSRWQEGNVFSCSVMHEALHNHYTQKSLSLSL
chain: B1 chain
light: DIVLTQSPATLSLSPGERATLSCRASQSVSYMNWYQQKPGKAPKRWIYDTSKVASGVPARFSGSGSGTDYSLTINSLEAEDAATYYCQQWSSNPLTFGGGTKVEIK
notes: VL row printed 'TAS VL', read as TA5 VL; full chains assembled from parts; not shown: kappa light chain constant domain (CL)
B6: 310 (TA5), configuration of FIG. 1X (bispecific antibody)
heavy: DVQLVQSGAEVKKPGASVKVSCKASGYTFTRYTMHWVRQAPGQGLEWIGYINPSRGYTNYADSVKGRFTITTDKSTSTAYMELSSLRSEDTATYYCARYYDDHYCLDYWGQGTTVTVSSASTKGPSVFPLAPCSRSTSESTAALGCLVKDYFPEPVTVSWNSGALTSGVHTFPAVLQSSGLYSLSSVVTVPSSSLGTKTYTCNVDHKPSNTKVDKRVESKYGPPCPPCPAPEAAGGPSVFLFPPKPKDTLMISRTPEVTCVVVDVSQEDPEVQFNWYVDGVEVHNAKTKPREEQFNSTYRVVSVLTVLHQDWLNGKEYKCKVSNKGLPSSIEKTISKAKGQPREPQVYTLPPCQEEMTKNQVSLWCLVKGFYPSDIAVEWESNGQPENNYKTTPPVLDSDGSFFLYSRLTVDKSRWQEGNVFSCSVMHEALHNHYTQKSLSLSLGGGGSGGGGSEVQLVESGGGFVQAGESLTLSCTSSTLTFTPYRMAWYRQAPGKQRDLVADISSGDGRTTNYADFAKGRFTISRDNIKNTVFLRMTNLKPEDTAVYYCNTFVSFVGIARSWGQGTQVTVSS
chain: B3 chain
light: B5 light
notes: as for B5
B7: 311 (TA6), configuration of FIG. 1X (bispecific antibody)
heavy: EVQLVQSGAEVKKPGASVKVSCKASGYTFTNYYIHWVRQAPGQGLEWIGWIYPGDGNTKYNEKFKGRATLTADTSTSTAYLELSSLRSEDTAVYYCARDSYSNYYFDYWGQGTLVTVSSASTKGPSVFPLAPCSRSTSESTAALGCLVKDYFPEPVTVSWNSGALTSGVHTFPAVLQSSGLYSLSSVVTVPSSSLGTKTYTCNVDHKPSNTKVDKRVESKYGPPCPPCPAPEAAGGPSVFLFPPKPKDTLMISRTPEVTCVVVDVSQEDPEVQFNWYVDGVEVHNAKTKPREEQFNSTYRVVSVLTVLHQDWLNGKEYKCKVSNKGLPSSIEKTISKAKGQPREPQVYTLPPCQEEMTKNQVSLWCLVKGFYPSDIAVEWESNGQPENNYKTTPPVLDSDGSFFLYSRLTVDKSRWQEGNVFSCSVMHEALHNHYTQKSLSLSLGGGGSGGGGSEVQLVESGGGFVQAGESLTLSCTSSTLTFTPYRMAWYRQAPGKQRDLVADISSGDGRTTNYADFAKGRFTISRDNIKNTVFLRMTNLKPEDTAVYYCNTFVSFVGIARSWGQGTQVTVSS
chain: B3 chain
light: B2 light
notes: as for B1

Each binder was assayed against T1, human CD3ε/δ (ACRO systems, CDD-H52W1) (human, UniProt P07766 23-126; P04234 22-105) (assay: serum-stability ELISA, Day 9 vs Day 0).
T1 construct: bought recombinant heterodimer; also called human CD3 epsilon/delta; Human CD3ε/CD3δ
Procedure: (§1) The samples to be tested were centrifuged at 4° C. at 12000 rpm for 30 minutes to remove the precipitate. 200 μl of each sample to be tested (0.5 mg/ml) was collected in a 1.5 ml Eppendorf tube. An equal volume of human serum (GEMINI, H2OYOOK) was added, mixed thoroughly, and the mixture was incubated in a 37° C. constant temperature CO₂ incubator. For a total of 10 days, 40 μl samples was aspirated every day and stored at −20° C.
(§2) Enzyme-linked immunosorbent assay (ELISA) was used to test the bispecific antibodies' binding to human CEA and human CD3 epsilon/delta antigen. The steps are as follows: the antigen human CD3ε/δ (ACRO systems, CDD-H52W1) and the recombinant tumor antigen human CEA (CEACAM-5/CD66e, ACRO systems, CE5-H5226) were diluted to 1 μg/ml with PBS, and then added to the 96-well plate at 100 μl per well. The wells were coated overnight at 4° C. After washing 3 times with 0.05% PBST, 200 μl 5% skimmed milk powder was added to each well and incubated at 37° C. for 2 h. After washing 3 times with 0.05% PBST, 100 μl primary antibody sample (10 μg/ml) was added to each well, and incubated at 37° C. for 2 h. After washing 3 times with 0.05% PBST, 100 μl (1:6000) diluted secondary antibody goat anti-human Fc-HRP (sigma, A2170) was added to each well, incubated at room temperature for 1 h. After washing 8 times with 0.05% PBST, 50 μl TMB color developing solution was added to each well, and incubated at room temperature for 10-15 min. 50 μl 1 mM HCl was added to each well to stop the color development. 450 nm Absorbance (OD) was read.
(§3) The binding of antibodies to antigen was calculated according to the following formula: Binding (%)=[(ODdayn−ODb)/(ODday0−ODb)]×100%. ODdayn: experimental well (the protein was stored in the serum for n days); ODday0: control well (the protein was not stored in the serum); ODb: blank well (no primary antibody added).

Row | Binding % [%] | Binder
1 | 103 | B1
2 | 109 | B2
3 | 110 | B3
4 | 95.1 | B4
5 | 101 | B5
6 | 90.3 | B6
7 | 100 | B7

These binders were tested against T1, human CD3ε/δ (ACRO systems, CDD-H52W1) (assay: serum-stability ELISA, Day 1 vs Day 0).
Procedure: as §1, §2, §3

Row | Binding % [%] | Binder
8 | 108 | B1
9 | 112 | B2
10 | 106 | B3
11 | 112 | B4
12 | 108 | B5
13 | 96.1 | B6
14 | 105 | B7

The binders below were run against T1, human CD3ε/δ (ACRO systems, CDD-H52W1) (assay: serum-stability ELISA, Day 0 (reference)).

Row | Binding % [%] | Binder
15 | 100 | B1
16 | 100 | B2
17 | 100 | B3
18 | 100 | B4
19 | 100 | B5
20 | 100 | B6
21 | 100 | B7

These binders were tested against T1, human CD3ε/δ (ACRO systems, CDD-H52W1) (assay: serum-stability ELISA, Day 6 vs Day 0).
Procedure: as §1, §2, §3

Row | Binding % [%] | Binder
22 | 107 | B1
23 | 111 | B2
24 | 103 | B3
25 | 101 | B4
26 | 105 | B5
27 | 93.2 | B6
28 | 104 | B7

Each binder was assayed against T1, human CD3ε/δ (ACRO systems, CDD-H52W1) (assay: serum-stability ELISA, Day 7 vs Day 0).
Procedure: as §1, §2, §3

Row | Binding % [%] | Binder
29 | 104 | B1
30 | 110 | B2
31 | 109 | B3
32 | 105 | B4
33 | 107 | B5
34 | 89.2 | B6
35 | 101 | B7

These binders were tested against T1, human CD3ε/δ (ACRO systems, CDD-H52W1) (assay: serum-stability ELISA, Day 2 vs Day 0).
Procedure: as §1, §2, §3

Row | Binding % [%] | Binder
36 | 104 | B1
37 | 109 | B2
38 | 100 | B3
39 | 110 | B4
40 | 106 | B5
41 | 90.2 | B6
42 | 105 | B7

Each binder was assayed against T1, human CD3ε/δ (ACRO systems, CDD-H52W1) (assay: serum-stability ELISA, Day 10 vs Day 0).
Procedure: as §1, §2, §3

Row | Binding % [%] | Binder
43 | 106 | B1
44 | 108 | B2
45 | 103 | B3
46 | 112 | B4
47 | 101 | B5
48 | 101 | B6
49 | 101 | B7

These binders were tested against T1, human CD3ε/δ (ACRO systems, CDD-H52W1) (assay: serum-stability ELISA, Day 5 vs Day 0).
Procedure: as §1, §2, §3

Row | Binding % [%] | Binder
50 | 110 | B1
51 | 110 | B2
52 | 107 | B3
53 | 115 | B4
54 | 100 | B5
55 | 92.2 | B6
56 | 103 | B7
